Laboratory results reported in the supplement of paper PMC9170038.

Test system: MS2 coat protein
Test: apparent KD of MS2 coat protein; higher = weaker reporter binding
Details: Eterna round: R107
Method in brief: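 Designed RNA switches, transcribed on-chip from Illumina sequencing clusters, were titrated with SNAP-549-labelled MS2 coat protein from 0.7 or 1.5 nM to 3 µM in twofold steps. The solution was 100 mM Tris-HCl pH 7.5, 80 mM KCl, 4 mM MgCl2, with constant ligand or without it. Apparent KD is the median over each design's normalised cluster binding-curve fits.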

[1] = input ligand: theophylline 20 uM
[2] = input ligand: tryptophan 2.4 mM
[3] = input ligand: theophylline 2 mM

| Sequence | apparent KD of MS2 coat protein (input ligand: arginine 13.2 mM) [nM] | apparent KD of MS2 coat protein [1] [nM] | apparent KD of MS2 coat protein [2] [nM] | apparent KD of MS2 coat protein [3] [nM] | apparent KD of MS2 coat protein (input ligand: none) [nM] |
| --- | --- | --- | --- | --- | --- |
| AUACCGAGUGAGUCGUGUUUCUUUUCAGAUACCAGACUUUUCGUUGUCCCUUGGCAGCUGUUUUACAUGAGGAUCACCCAUGUUG [#28 Exclusion-TheophyllineA] | 16.3 | 18.1 | 15.2 | – | – |
| AUAUAUACAUGAGGAUCACCCAUGUUAUUACGAGGACCGGUACGGCCGCCACUCGAUAGAGUAGAAGUAAAUUUUAAUUCAUGUA [JR_SSTryptoA_Sub007] | 14.6 | 15.7 | – | 14.4 | – |
| AUAUGAUCAUAUGAUACCAGAAAUGGUAUUCCUUUCUUUCUUACAUGAGGAUCACCCAUGUUCCCUUGGCAGCAUAUGAUCAUAU [ETHB #1] | 90.7 | 210 | 153 | – | – |
| AUAUUAAUCGGAAGGAGCGGUACAUGAGGAUCACCCAUGUGCGAAGCCAGCAGAUCCCGUUACCAGGUAGGUCGCCGAGUUAUGA [Begebe] | 23.6 | 39.8 | 30.7 | 37.5 | 33 |
| AUAUUAAUCGGAAGGAGCGGUACAUGAGGAUCACCCAUGUGGUAAGCUAGCAGAUCCCGUUACCAGGUAGGUCGCCGAGUUAUGA [XArg-B17] | 268 | 474 | 216 | 510 | 201 |
| AUCAUAAUAGACUCGUUAGAUUAUAUGGAACGAGGACCGGUACGGCCGCCACUCGUGAUGUACAUGAGGAUCACCCAUGUUAGCU [JR_Nu_SSTryptoA_Sub025] | 15.2 | 18.8 | – | 17 | – |
| AUCCAUAGCCGAAGGAGCGCAGUAGGAUGACAUGAGGAUCACCCAUGUGUGUGAUGUGGAUUGCAGGUAGGUCGCGGAGUGGGUU [Exclusion - Arginine B (Freestyle 7)] | 101 | 124 | 79.7 | 134 | 65.2 |
| AUCGUACCUGAGGAUACCAGCAUGUGAUCAUAACAUGAGGAUCACCCAUGUAAUCAGUGAUGCCCUUGGCAGCUUAGUCGAUACA [Same State - Theophylline B (Freestyle 7)] | 58.7 | 101 | 58.3 | – | – |
| AUCGUACCUGAUGAUACCAGCAUGUGAUCGUAACAUGAGGAUCACCCAUGUGAUCAGUGAUGCCCUUGGCAGCAUGAUCGGUACA [Same State - Theophylline B (Freestyle 15)] | 36.6 | 35.8 | 36.7 | – | – |
| AUGCAUAGCACGGCCGCCACUCAAAUUAAACAUGAGGAUCACCCAUGUAACAUGGAUAAAAUAAAGAGGACCGGGUGAAAUGCAA [JR_SSTryptoB_Sub010] | 26 | 36.2 | – | 33.7 | – |
| AUGCAUGUCAGAAGGAGCGUCAGUAACAUGAGGAUCACCCAUGUAACAUUGAAUUCGAUGAGACAGGUAGGUCGCUGAAUAGUAA [JR_SSArginiB_Sub019] | 26.4 | 37.7 | 27.8 | 35.9 | 30.6 |
| AUGUCGUUGAAUAUAGCGGCUUGGAGUGAUACCAGAAUGAUCCAAUUCCCUUGGCAGCAUUACAUGAGGAUCACCCAUGUUCCAG [SSTheo A #23] | 24.1 | 55.5 | 48.6 | 89.6 | 37.1 |
| AUGUGCAAUACGGAUACCAGCCCGUGUAGAUACAUGAGGAUCACCCAUGUCAAUGUAAAUGGCCCUUGGCAGCCGUUUGGGAGGC [theeternabot_sameState_MS2_Theo_B_35] | 13.4 | 19.9 | 19.4 | – | – |
| AUUCAUAACUGAAGGAGCGUGAUAUAAAUUUUUACAUGAGGAUCACCCAUGUUUCAUAGAUCACAGGUAGGUCGCAGAUUCUCAU [JR_SSArginiB_Sub011] | 36.8 | 42.4 | 39.2 | 42.9 | 45.2 |
| AUUGUCGUGUCGGCCGCCACUGUCAUGGUUUUCGUGGAAAACAUGAGGAUCACCCAUGUAAUUGACAGGACCGGGACAUGGCGGC [Ricegesoer] | 9.35 | 11.1 | – | 9.4 | – |
| AUUUGGCGUAGUGUUGCUCGUGGGAUAAAACGAGGACCGGUACGGCCGCCACUCGAUGAUUAACAUGAGGAUCACCCAUGUAAAU [theeternabot_exclusion_MS2_Trp_A_22] | 17.5 | 30.6 | – | 32.2 | – |
| CAAAAUGCGGCGGCCGCCACUCAGCUCCGUGUGGUUGGUCAUCUUAACAUGAGGAUCACCCAUGUGAGGACCGGGCCAGCGAGUG [theeternabot_exclusion_MS2_Trp_B_38] | 13.3 | 19.6 | – | 17 | – |
| CAAAAUUACGGAAGGAGCGCGGGUAGGCGGGUUGGAUCACAUGAGGAUCACCCAUGUAAAUCGCAGGUAGGUCGCCGUAAACGCG [Eslagele] | 45.6 | 43.9 | 36 | 76.9 | 28.8 |
